Assay results from the DeepSol protein solubility set.

Assay: soluble on expression in E. coli; label from the status in PepcDB or PDB records

Sequence | soluble on expression in E. coli
MGSDKIHHHHHHMTNIPFIYQYEEKENERAAAGYGTFGYLITRIEETLYDQYGVFYELYASDDPNTEYWELLVEDVRSGSLEPEHVAYIFEKLEKKTFAYDEDEKEPDYTVHKSIRNSVYAYPEKGVAFARIPYFQDGSIMSFDCLFAVNDEKMRAFLEGVRPRLWEKSKRKVTVFTDGDGGTSREQEAIVREVQRSQVIMNPLLKKEIYRSIDQFFHSDKSFYQTYDIPYKRGILLYGPPGNGKTTLVKSIAGSIDAPVAYWQITEFTSSETIEEVFQAARRLAPAVLVIEDIDSMPEDVRSFFLNTLDGATSKEGLFLIGTTNYPEEIDPGLMNRAGRFDRAYEIGLPDEELRLEYMKMRGFGIFLSEGEIKNAAKLTEGFSFAQLGELYVSSALQWHQEGNHHIETMVKDMTGEQRKSQRGSWMERNKVGFH | not soluble
SNAPLKEQKVINTANIKTNSKLDLAEYENGLINIATQQFDTESHVLQLNQYIPEKLIDELVAKVEAPVLTNIIEQDYFGKQNSNELSLSGVMIGLAMSSSVSNEEAMSKGTEVAKQLIEAINKNDKYNKSPITFAIFKQESTSSLKNGTYIASATVQKNDTNLGNWSTIDEKSYSYPSDEFTQAHGEDNTKINNFAKEIKGFSNGDFIPVNAKVSYKKDQMDTLNMNIVIKYNGKTELMALTQLAAQGMLDKLPKDAKVQLQIKSESKIEAVIIKEKNSDKPFVSFL | soluble
MEKADIEAIFARSRFISAMNLEILDIDHAGSRFSVRMPLQDTYERGAPGTKQFHGGALAALIDVVGDFAIGMLVGGGVPTMNLRIDYLRPAVGDYVDGVAVVRKAGKSAAVVDIDILCPAGKLVAIGRGTYVPITGLEHHHHHH | not soluble
MSLKYEKIAFFRFFGRLNDFFRNSERIKTHRFTGFQTVKDRIEALGVPHVEVSLITLNGKPVGFDHMVEDGELFFVYPEFQNIEIPEDWLVTPRYIGEPRFVLDIHLGKLARLLRMLGFEAVFGEESDEKLCWMAVKKKAILLSRDTGLLKRKELVFGYYVRNTDPKEQLVEVVERYDLKKWMKPFTRCIECGVELEEVPKEAVKNRVPPKVYGFFNEFARCPVCGRIYWKGSHYDHMVEFIKSNINKGEGHHHHHH | soluble
MISKRPDIYTQHDKAFSAVSAYVVLNSANERVATVALKFPCDGAGRLYAYVHWVGLEMVRGWAGGYGYDKRSAACASAARRIAIGNLTGDEWTNRRHEATAFVEALEKDSGEDWTRQLEAAGFKVFQAV | not soluble
MPCVFQIWEKGMEKQEIGIYGREKMFMRKKENELQIDWKHFYLGVLALVIPMALQNLINVGVTAADVVMLGRVGETALSGSSLAGQVQY | not soluble
MGSDKIHHHHHHMARLSEGWSKEPFFLFFHPPKSPTKKENIKMNYRETLQAVDTEKALSVIGINSTLQGAYVKFNCPECEQQALIKAYGEKKNLWYCPKCKKSGHIISLTMTKKNIQWEEAKDLLLKARNGVKKITEEFNLKYDLQYNDFIKDKGLSEDICKFLEIGTPKGKTMLSGCVAFLVRDEVGMRVAYFGIKMKDEKHVFHKSFNPEQYLYGFQNLDFAYDVYFTTDLFECIKHIENGFQCVCNFGLPYISNEQMELLEKAERVTFSIRDELVKPFALQLTQRQKFYRFIK | not soluble
SLKWDNSYSVHNAKIDEQHKKLFKLAAKVEVVSDRSVSKNEVKELLAEFFNYMKDHFNDEEKYMQLIGYPNLEEHRKIHKEIIQTMINLIKDIKSTNDLKEKLYIVAKKWLLEHILYEDMKVEKWRSSSLSTDDGGDVS | soluble
MTNKDIYKNNPLHGTSLETVLTTLVDHYGFEILAAYMNLNCFKQNASIESSLKFLKKTQWAQEKVEAFYMYQYNSLPKADDANFELPPRDRIVPSGLEQRPPKELSLDDAEELRIKQAKKTRERAAAATSANPWGSRLEHHHHHH | not soluble
SLVYDGNNKLIADLGSEKRESVSADSIPLNLVNAITSIEDKRFFKHRGVDIYRILGAAWHNLVSSNTQGGSTLDQQLIKLAYFSTNKSDQTLKRKSQEVWLALQMERKYTKEEILTFYINKVYMGNGNYGMRTTAKSYFGKDLKELSIAQLALLAGIPQAPTQYDPYKNP | not soluble
AFTMEIPPTHYAASRAASVAENCINYQQGTPHKLFLVQTVQQASKEDIPGRGHKYHLKFSVEEIIQKQVTVNCTAEVLYPQMGQGSAPEVNFTFEGEIGKNPDEEDNTFYQSLMSLKRPLEAQDIPDNFGNVSPQMKPVQHLAWVACGYVMWQNSTEDTWYKMLKIQTVKQVQRNDDFIELDYTILLHDIASQEIIPWQMQVLWHPQYGTKVKHNSRLPKEGQAE | soluble
MGSDKIHHHHHHMKLNFTGHTDPGLIRSNNQDDYYIDPEGRFFIVADGMGGHAGGEEASRIATREIKAYLTANWDVSKPSSELLEQALWQANEAILQDQQNHPERADMGTTAVVVIFRNDEQWCAHVGDSRLYRLRETQLEQVTEDHTWVARAIKIGDITAEEARVHPFRHVLSRCLGREDLHQVDVQPLDTKIGDRLLLCSDGLTEELPDQKIAHNLQINSLLDQSALSLVEDAKEQGGHDNITVVIVALE | not soluble
MIARYQTPEMARLWSEESRYRMWARVEAYALEAWEALGEVPKGLSARLLAKLEEKPLDGAFARRVAELEAVTRHDLVAFTRALAEWTGDEEVGRYLHLGLTSSDIVDTAQNALLVEALGLVLEELKGVEEALKALALRHKHTPAIARTHGVHAEPTSFGLRFLFFLAAFQRDEERLKRARETIGVAMLSGSVGNYAHVPPEVEAHVASRLGLRPEPLSTQVVPRDRHAEVMAALAILGGNIERVAVELRHLQRTEVLEAQEPFHEGQTGSSSMPHKKNPVGLENLTGVARLLRGYLFPALEDIALWHERDISHSSVERVILPDATTLAHYALRRLKGILEGLEVFEENLARNLDLTRGLVYSQQVLNALIARGLSRNKAYALVQRNALRSWKEGKSFLELLEADPENPLKGKELRALFDPKPFLRHVDAIYARFGL | soluble
MQKHFDCVLKHLLSRCCARRRESSFRPAPAGKVFLD | not soluble
MSATEKDKTPLLGVSQPISLAHPDSKDIAQTTLLIETLKKFGSYEPKEETEQRMEVLRNLNRLVKEWVKNVTAMKIPNGEGVNAGGKLFTFGSYRLGVHSSGADIDTLAVVPRHIDRSDFFTSFKEMLNNDPNVTELHGVEEAFVPVMKLKYSGVELDILFARLALKEVPDTQELSDDNLLRNLDQESVRSLNGCRVAEQLLKLVPRQKEFCVTLRAIKLWAKNHGIYSNSMGFFGGITWAILVARACQLYPNASPSRLVHRMFFIFSTWTWPHPVVLNEMNNDRNDIPTLCELVWDPRRKNTDRFHVMPIITPAFPEQNSTHNVTRSTATVIKNEICEALEICRDISEGKSKWTALFEEVNFFSRYKHFIALIMAAPNEEEELNYGGFLESRIRLLVQSLERNQDIIIAHNDPNKHKPSPNAKFDVNPENKRVTVWFIGLEFAEHAKTLDLTNEIQRFKTNVELQASNVKGIGPNCQVQIDMFYVKRNSLIQVISAADLRRGRRWKKVVPIATNTSVSSSTPRSVVRTTSTSSVPTTPTGLAAPKTPLSASVSATNEPDSTTNGTPLSRKRSMDEESSTTVTSQISDESVPKKKTRDDTLEENRVSMVVEVSNVVVEQRTKVVQEIVDLQADNGLNTSNGLEASEQKMEVPQSV | not soluble
MGSDKIHHHHHHMIETKFKQTELCRIPEDWDIGTFADFLITFSAGATPYRGIPDNFVGTIPWISSGELNYCEIENTREHISSDAQKNTHLTLHKPGTFLIAITGLEAAGTRGRCAFVKTPATTNQSCLAINSTDKMTVKYLFWFYRQWSDFLAFNFSQGSKQQSFTAEIVKRLPLYAPKYKEQEKIAEALSDVDKLIRELDTLIEKKRAVMQGTMQELLTAHRRLPGFVHPWRNTLVEKCCKITTGESNTRDQIESGIYPFYIRSATVMRSNSYIFDCEGVITIGDGQIGKVFHYVNGKFDLHQRCYLMYDFDDIDVKFFYFLFSFFFYNRVIALSAKATVDSVRRNMIAKMKINIPSTMQEQKAIANILSDMNDGIEAIEAKRDKYIAVRQGMMQQLLTGKIRLI | not soluble
METPQDSRQSIQKPPSPAAEEDKEEQPGGNAVVSGAPEERIDKKELVLNWLAQGEFDQGEGAQGEVAGGEQAQEEPAPLSPAQEATGGEEEGENKEGEMEGRHAGDGASSSEDDSILEEGGENIDQQPPQQEAASPDSIRNPHVLNRLAQLRYRRTRFTHFQLHDLERLFQETRYPSLRARRDLARWMGVDECDVQNWFRMRRALFQRNRRVLMFCELPPLPQSDSP | soluble
